The record followed here is article PMC6158489.

In the data set the test system is VpsR (Vibrio cholerae). Briefly: EMSA.

Where “and” joins values, the source holds several entries; their conditions need not be identical. Equal entries are not always repeated.

One may read the Kd as the free concentration of one partner at which half of the binding sites on the other are occupied at equilibrium, for simple one-to-one binding. A high value points to weaker binding. As for PvpsL promoter fragment (-97 to +113), the Kd was 2220 nM and 1660 nM.
